Reference: paper PMC9132681 (Biochimie, 2022)

B1: C-terminal domain of human Hsp90 (residues 566-732) (domain or fragment)
chain: not shown
B2: cytosolic fragment of human TOM70 (residues 111-608), His-tagged (domain or fragment)
chain: LDRAQAAKNKGNKYFKAGKYEQAIQCYTEAISLCPTEKNVDLSTFYQNRAAAFEQLQKWKEVAQDCTKAVELNPKYVKALFRRAKAHEKLDNKKECLEDVTAVCILEGFQNQQSMLLADKVLKLLGKEKAKEKYKNREPLMPSPQFIKSYFSSFTDDIISQPMLKGEKSDEDKDKEGEALEVKENSGYLKAKQYMEEENYDKIISECSKEIDAEGKYMAEALLLRATFYLLIGNANAAKPDLDKVISLKEANVKLRANALIKRGSMYMQQQQPLLSTQDFNMAADIDPQNADVYHHRGQLKILLDQVEEAVADFDECIRLRPESALAQAQKCFALYRQAYTGNNSSQIQAAMKGFEEVIKKFPRCAEGYALYAQALTDQQQFGKADEMYDKCIDLEPDNATTYVHKGLLQLQWKQDLDRGLELISKAIEIDNKCDFAYETMGTIEVQRGNMEKAIDMFNKAINLAKSEMEMAHLYSLCDAAHAQTEVAKKYGLKPPTL

Experiments:
[1] = target: B2; assay: SEC-MALS
full-length human Hsp90 = full-length human Hsp90 (human, UniProt P07900 1-732); assay: pull-down

Q: B1 was tested. Which “stoichiometry N” value [1] did it give?
A: 2 C-Hsp90 per TOM70

Q: Does B2 bind (full-length human Hsp90)?
A: binds
